# The supplement of paper PMC7125110
# ± gives the standard error. Variants at the floor of the assay were thinned out.
# B1: glmS ribozyme (parent)
# chain: AUAAAAGCGCCAGAACUACAGAAAUGUAGUUGACGAGGAGGAGGUUUAUCGAAUUUUCGGCGGAUGCCUCCAAA
# Variants of: B1
# Experiment: self-cleavage kobs at 10000 uM GlcN6P; higher = faster cleavage; RNA array
# Conditions: with glucosamine-6-phosphate
# Method in brief: (§1)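 Glucosamine-6-phosphate (40 μM to 10 mM) in HEPES/KCl/Mg(OAc)2 buffer was flowed over sequenced MiSeq chips, and tiles were imaged over ~14 h. Barcoded ribozyme variants there had been transcribed in situ by E. coli RNA polymerase and were tracked through a hybridised Cy3 probe at 37 °C. One- or two-exponential decay fits to per-tile medians, normalised to baseline and to non-cleaving reference variants, gave kobs. kcat and KM came from weighted Michaelis–Menten fits across concentrations.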
row,Variant,self-cleavage kobs at 10000 uM GlcN6P [s⁻¹]
1,A6U G35A U46G G51U C61A,< 1e-05
2,C8U G32C A36C G38C,< 1e-05
3,C8A A12G A39G U45A A48C U55C,< 1e-05
4,G9A U56C C58G,< 1e-05
5,G9A A15G G35A A42U C70U,< 1e-05
6,C8A U65G,< 1e-05
7,G7A A33G C50A U69A C70U,9.88e-05 ± 1.8e-05
8,C10A A15C A42C U55G C68U,< 1e-05
9,C8A A14U A39C,< 1e-05
10,G9A A15U A39G A52U G60U,< 1e-05
11,A6G G35C U46C,< 1e-05
12,C8A A14G C70G,< 1e-05
13,G9C U46A C58U,< 1e-05
14,U46G C61A,< 1e-05
15,G41U A52U U55A C70U,9.97e-05 ± 2.6e-05
16,A6G A12G G40U U47C,< 1e-05
17,G7A G35U U57A,< 1e-05
18,G7U A42U C67G,< 1e-05
19,A6G G7A C16G U47A A53C C58A,< 1e-05
20,G7A G35C G41U,< 1e-05
21,G9A C16G G51A G60U,< 1e-05
22,C8G G9A G35A A36U,< 1e-05
23,A6G C50G C68G,2.86e-05 ± 1.1e-05
24,C8G C61G C70A,< 1e-05
25,C8U U45G C50U U65C,< 1e-05

row,Variant,self-cleavage kobs at 10000 uM GlcN6P [s⁻¹]
1,G7A G29C G32U U57C C58A,< 1e-05
2,A6G A12C A33G U45A G62U,< 1e-05
3,A6U G44U C71A,< 1e-05
4,G7A U55G C67U C70G,4.07e-05 ± 1.8e-05
5,G7U A12G G35A A39G U49A C67A,< 1e-05
6,C8G G51U U69G,0.00122 ± 0.00049
7,A6C G7C G32A A52U,< 1e-05
8,G9U C34G C70G,< 1e-05
9,G7A U30G A33G U69G,0.000162 ± 2.9e-05
10,C10G U55C,< 1e-05
11,C8U A12U A42C C70U,< 1e-05
12,U46C A52C G60U C61U,< 1e-05
13,C10A C50U G59A,< 1e-05
14,G9C G13C A14U U31A A48G C61A,< 1e-05
15,C8A U45A A52G C61G C67U,< 1e-05
16,C8U U31C A52U,< 1e-05
17,G9A U30C G35U U55G,< 1e-05
18,G7U A12U G35U G51U G66A,< 1e-05
19,G7U G51A U56G,< 1e-05
20,C10A A36U A39U,< 1e-05
21,G9A A12U C70G,< 1e-05
22,C10G U57G C67A,< 1e-05
23,C8U C50A G51U A52U,< 1e-05
24,A6U G51C G63C U69G,< 1e-05
25,G9C A39U A42U,< 1e-05

row,Variant,self-cleavage kobs at 10000 uM GlcN6P [s⁻¹]
1,A6C U30G G35U,< 1e-05
2,C8U C61U C68G,0.000133 ± 4.3e-05
3,G7A A64G,4.09e-05 ± 9.6e-06
4,A39U U65C C67G,0.00025 ± 6e-05
5,C8A G13A U46A,< 1e-05
6,C8U A36U U45A,< 1e-05
7,C10A A14G G32U A48C G59A,< 1e-05
8,A6C G43A G59C C70U,< 1e-05
9,A6C C50G A64U,3.95e-05 ± 2e-05
10,G9U G41U A42G A52U A64U C68U,< 1e-05
11,G7A A53G,3.18e-05 ± 9.4e-06
12,C8A G35C A53U,< 1e-05
13,U46C G60C C61U,< 1e-05
14,A6C A36U U69A,< 1e-05
15,A6G G59C G62A,< 1e-05
16,C8G A12C A33C,< 1e-05
17,C8G C16U C68A,< 1e-05
18,C10G C50U G62U C70G,< 1e-05
19,A5U C8G G9U U30C,< 1e-05
20,A42G U45C C70U,0.00197 ± 0.00052
21,C10A A12G G35C U56A U69A,0.000264 ± 7.7e-05
22,C10G G32U G44A U54A C68A,< 1e-05
23,U45C U46A,5.25e-05 ± 1.3e-05
24,G9U G41A C50U G60C,< 1e-05

# Variants of: B1
# Experiment: self-cleavage kobs at 2500 uM GlcN6P; higher = faster cleavage; RNA array
# Conditions: with glucosamine-6-phosphate
# Method in brief: as §1
row,Variant,self-cleavage kobs at 2500 uM GlcN6P [s⁻¹]
1,A39C G59A G63U,< 1e-05
2,U47G G62U G63U U65G,< 1e-05
3,G44U C50G U56G,< 1e-05
4,G41U U55C C61G,< 1e-05
5,U45C U46C C70A,0.000116 ± 4.4e-05
6,G44C C58G G63A C67G,< 1e-05
7,U46A A52G G63U C67G,< 1e-05
8,G51C G59A C71U,< 1e-05
9,A39G G43U U54C,6.53e-05 ± 2.4e-05
10,A52U A53U G62A U65G C71G,< 1e-05
11,U46G C61A,< 1e-05
12,G41U A52U U55A C70U,6.63e-05 ± 1.6e-05
13,A42G G51U C67U,< 1e-05
14,A53U U54C U57C C61G,< 1e-05
15,G41A U47G C70G,9.9e-05 ± 3.6e-05
16,G40U U54G C68U,0.000121 ± 4.4e-05
17,U45A U54G C68G,9.7e-05 ± 3.2e-05
18,A39C G40A,0.000126 ± 3.1e-05
19,G41A A48U U57C G60A C61U C67U C71G,< 1e-05
20,G40U C50G G62A,< 1e-05
21,A48U A53U U69C,0.000134 ± 3.4e-05
22,C50A C67A C70U,0.000109 ± 3.7e-05
23,C50A U56G C70A,8.66e-05 ± 2.8e-05
24,C50G U55C,3.57e-05 ± 1.6e-05
25,U46G G66A C70A,0.00045 ± 0.00016

row,Variant,self-cleavage kobs at 2500 uM GlcN6P [s⁻¹]
1,G43C C58G,< 1e-05
2,U47G U57C C68A,8.58e-05 ± 3.6e-05
3,A39U U47C U56A,0.00121 ± 0.00039
4,A39G G41U A42G,0.000339 ± 9.9e-05
5,A42C A48G C50G C61A C70U,< 1e-05
6,A48G U54G C70U,0.000276 ± 7.7e-05
7,U45C G60A G63C,< 1e-05
8,C50A U65G U69G C70A,8e-05 ± 2.9e-05
9,G51U A53G U69G,4.29e-05 ± 2e-05
10,G40U A42G C70U,0.00344 ± 0.00066
11,G41A U45A C71U,9.76e-05 ± 2.1e-05
12,A42U U45C U55A,6.42e-05 ± 1.1e-05
13,C50U G60U A64C C70A,< 1e-05
14,G44C G62A C68G,< 1e-05
15,U45G U46A G66U,0.000166 ± 3.9e-05
16,G41C A48U A52C A53U,< 1e-05
17,U46A A64G G66A C71G,6.58e-05 ± 2.6e-05
18,U46C A52C G60U C61U,< 1e-05
19,A42G C61A C70A,< 1e-05
20,U45C U55A U65C,4.27e-05 ± 1.2e-05
21,C50A A53G C58G C68A,0.000108 ± 3.9e-05
22,A52C C58U G59U,< 1e-05
23,A52G U57A C58G C71U,7.76e-05 ± 2.9e-05
24,U54A C61A A64U C68U,8.54e-05 ± 3.8e-05
25,U46G A48U G59U U69C,< 1e-05

row,Variant,self-cleavage kobs at 2500 uM GlcN6P [s⁻¹]
1,U54A A64G C70A,0.000536 ± 0.00018
2,C50U A52C C58U,< 1e-05
3,G40C U45G C58U,< 1e-05
4,A52U A53C C67G,< 1e-05
5,U47A A64U C67G,< 1e-05
6,G41C U47C C61G C67U,< 1e-05
7,A42U U45A U49G,< 1e-05
8,G44C U55C C70G,< 1e-05
9,A42G G43U G60U C61A,< 1e-05
10,U47C U54A C70U,0.00241 ± 0.00052
11,U57C U69C,6.42e-05 ± 2.1e-05
12,U55G C58U C70U,4.84e-05 ± 1.7e-05
13,U54G C67G C70U C71U,0.000105 ± 1.9e-05
14,G43A G66U C67U C71U,< 1e-05
15,A39C G60A C61A,< 1e-05
16,A42C A53C U55C,< 1e-05
17,G43U U45C C71G,< 1e-05
18,A52G A53U G66C C67G,< 1e-05
19,A42U U47G U69A,0.0115 ± 0.0021
20,A53G C61G G62A,< 1e-05
21,G44U U57A C71A,< 1e-05
22,C50U U55A C68G,0.00018 ± 5.2e-05
23,A39U U65C C67G,0.000168 ± 5.5e-05
24,A64C G66A,4.39e-05 ± 1.4e-05
25,U46A C67G C68U,0.000113 ± 5.1e-05

row,Variant,self-cleavage kobs at 2500 uM GlcN6P [s⁻¹]
1,A42U C50U G51U U54C,< 1e-05
2,A42C U56G U65C C71U,< 1e-05
3,G40A G59C G63A C68A,< 1e-05
4,U45C A52U C68U,< 1e-05
5,A39U A52C C71A,< 1e-05
6,G44C U49A G60A G66U,< 1e-05
7,U46C G60C C61U,< 1e-05
8,G41U G44U C67U U69G,< 1e-05
9,G43C U56A G62A,< 1e-05
10,A42G C61A U65C,< 1e-05
11,G40A A72C,0.00214 ± 0.00067
12,A53U C58G C61G C71G,0.000415 ± 0.00016
13,A53C C61A G62U,< 1e-05
14,G41U U45C A64U,< 1e-05
15,A42G U45C C70U,0.00265 ± 0.00085
16,G44U A52G C67U U69G,< 1e-05
17,U45G U56G A64G,0.00171 ± 0.00054
18,C61G C68G,0.000131 ± 5.8e-05
19,U47G U56C C71A,5.07e-05 ± 2.5e-05
20,G43A A53U U56G G62U,< 1e-05
21,U45C U46A,4.42e-05 ± 1.9e-05
22,U45A U46A A52U,8.04e-05 ± 3.5e-05
23,G43A G59C C68G,< 1e-05
24,A42C U45C A48U C61A,< 1e-05
